# Results reported in patent US20210228731A1, “ANTIBODY DRUG CONJUGATES FOR ABLATING HEMATOPOIETIC STEM CELLS” (NOVARTIS AG, priority 2018, published 2021).
# B1: anti-cKIT Fab4 (HC-E152C): anti-cKIT Fab fragment with heavy chain E152C (Cys Fab HC SEQ ID NO: 136) (antibody)
# heavy: QVQLQQSGPGLVKPSQTLSLTCAISGDSVSTNSAAWNWIRQSPSRGLEWLGRIYYRSQWLNDYAVSVKSRITINPDTSKNQFSLQLNSVTPEDTAVYYCARQLTYPYTVYHKALDVWGQGTLVTVSSASTKGPSVFPLAPSSKSTSGGTAALGCLVKDYFPCPVTVSWNSGALTSGVHTFPAVLQSSGLYSLSSVVTVPSSSLGTQTYICNVNHKPSNTKVDKRVEPKSCD
# modifications: light chain not cited
# Tested on: human peripheral blood HSC-derived mast cells
# Assay: In vitro human mast cell degranulation assay (beta-hexosaminidase release)
# Type: cell-based
# Details: test agents 0.006-25 nM cross-linked with antibody specific for the Fab portion; absence of SCF
# Protocol: Mature mast cells were generated using CD34+ progenitors from mobilized peripheral blood. CD34+ cells were cultured in StemSpan SFEM (StemCell Technologies) supplemented with recombinant human stem cell factor (rhSCF, 50 ng/ml, Gibco), recombinant human interleukin 6 (rhIL-6, 50 ng/ml, Gibco), recombinant human IL-3 (30 ng/ml, Peprotech), GlutaMAX ([…], Gibco), penicillin (100 U/ml, Hyclone) and streptomycin (100 μg/ml, Hyclone). Recombinant hll-3 was added only during the first week of the culture. After the third week, half of the medium was replaced weekly with fresh medium containing rhIL-6 (50 ng/ml) and rhSCF (50 ng/ml). Mature mast cell purity was evaluated by surface staining of high-affinity IgE receptor (FCεRI, eBioscience) and CD117 (BD). […]
# The derived mast cells were washed once to remove SCF, and the required amount of cells was incubated overnight in mast cell medium containing rhIL-6 (50 ng/ml) with or without rhSCF (50 ng/ml). […] During this incubation, p-nitro-N-acetyl-pi-D-gluosamine (pNAG, Sigma) buffer was prepared by sonicating 3.5 mg/ml of pNAG in citrate buffer (40 mM citric acid, 20 mM sodium phosphate dibasic, pH 4.5). β-hexosaminidase release was measured by mixing 20 μl of cell supernatant with 40 μl of pNAG solution in a flat-bottom 384-well plate. […] Absorbance was read using a plate reader at λ=405 nm with reference filter at λ=620 nm. […]
molecule,measurement,value
B1,mast cell degranulation (beta-hexosaminidase release) when cross-linked,no mast cell degranulation was triggered
